From patent publication US20230174608A1 (published 2023) come the findings set out here.

B1: dgc015 (peptide)
peptide: HXQGTFTSDYSKYLEERAAKEFIAWLEGG
HELM: PEPTIDE1{H.[Aib].Q.G.T.F.T.S.D.Y.S.K.Y.L.E.E.R.A.A.K.E.F.I.A.W.L.E.G.G.[am]}|PEPTIDE2{[CCCCCCCCCCCCCCCC(=O)[*:2]].[gGlu]}$PEPTIDE1,PEPTIDE2,20:R3-2:R2$$$V2.0; N-terminus assumed
SMILES: CCCCCCCCCCCCCCCC(=O)N[C@@H](CCC(=O)NCCCC[C@H](NC(=O)[C@H](C)NC(=O)[C@H](C)NC(=O)[C@H](CCCNC(=N)N)NC(=O)[C@H](CCC(=O)O)NC(=O)[C@H](CCC(=O)O)NC(=O)[C@H](CC(C)C)NC(=O)[C@H](Cc1ccc(O)cc1)NC(=O)[C@H](CCCCN)NC(=O)[C@H](CO)NC(=O)[C@H](Cc1ccc(O)cc1)NC(=O)[C@H](CC(=O)O)NC(=O)[C@H](CO)NC(=O)[C@@H](NC(=O)[C@H](Cc1ccccc1)NC(=O)[C@@H](NC(=O)CNC(=O)[C@H](CCC(N)=O)NC(=O)C(C)(C)NC(=O)[C@@H](N)Cc1c[nH]cn1)[C@@H](C)O)[C@@H](C)O)C(=O)N[C@@H](CCC(=O)O)C(=O)N[C@@H](Cc1ccccc1)C(=O)N[C@H](C(=O)N[C@@H](C)C(=O)N[C@@H](Cc1c[nH]c2ccccc12)C(=O)N[C@@H](CC(C)C)C(=O)N[C@@H](CCC(=O)O)C(=O)NCC(=O)NCC(N)=O)[C@@H](C)CC)C(=O)O
B2: dgc018 (peptide)
peptide: HXQGTFTSDYSKYLDERAAKEFIAWLEGEG
HELM: PEPTIDE1{H.[Aib].Q.G.T.F.T.S.D.Y.S.K.Y.L.D.E.R.A.A.K.E.F.I.A.W.L.E.G.E.G.[am]}|PEPTIDE2{[CCCCCCCCCCCCCCCC(=O)[*:2]].[gGlu]}$PEPTIDE1,PEPTIDE2,20:R3-2:R2$$$V2.0; N-terminus assumed
SMILES: CCCCCCCCCCCCCCCC(=O)N[C@@H](CCC(=O)NCCCC[C@H](NC(=O)[C@H](C)NC(=O)[C@H](C)NC(=O)[C@H](CCCNC(=N)N)NC(=O)[C@H](CCC(=O)O)NC(=O)[C@H](CC(=O)O)NC(=O)[C@H](CC(C)C)NC(=O)[C@H](Cc1ccc(O)cc1)NC(=O)[C@H](CCCCN)NC(=O)[C@H](CO)NC(=O)[C@H](Cc1ccc(O)cc1)NC(=O)[C@H](CC(=O)O)NC(=O)[C@H](CO)NC(=O)[C@@H](NC(=O)[C@H](Cc1ccccc1)NC(=O)[C@@H](NC(=O)CNC(=O)[C@H](CCC(N)=O)NC(=O)C(C)(C)NC(=O)[C@@H](N)Cc1c[nH]cn1)[C@@H](C)O)[C@@H](C)O)C(=O)N[C@@H](CCC(=O)O)C(=O)N[C@@H](Cc1ccccc1)C(=O)N[C@H](C(=O)N[C@@H](C)C(=O)N[C@@H](Cc1c[nH]c2ccccc12)C(=O)N[C@@H](CC(C)C)C(=O)N[C@@H](CCC(=O)O)C(=O)NCC(=O)N[C@@H](CCC(=O)O)C(=O)NCC(N)=O)[C@@H](C)CC)C(=O)O
B3: dgc016 (peptide)
peptide: HXQGTFTSDYSKYLEERAAKEFIAWLEGG
HELM: PEPTIDE1{H.[Aib].Q.G.T.F.T.S.D.Y.S.K.Y.L.E.E.R.A.A.K.E.F.I.A.W.L.E.G.G.[am]}|PEPTIDE2{[CCCCCCCCCCCCCCCC(=O)[*:2]].[gGlu].[gGlu]}$PEPTIDE1,PEPTIDE2,20:R3-3:R2$$$V2.0; N-terminus assumed
SMILES: CCCCCCCCCCCCCCCC(=O)N[C@@H](CCC(=O)N[C@@H](CCC(=O)NCCCC[C@H](NC(=O)[C@H](C)NC(=O)[C@H](C)NC(=O)[C@H](CCCNC(=N)N)NC(=O)[C@H](CCC(=O)O)NC(=O)[C@H](CCC(=O)O)NC(=O)[C@H](CC(C)C)NC(=O)[C@H](Cc1ccc(O)cc1)NC(=O)[C@H](CCCCN)NC(=O)[C@H](CO)NC(=O)[C@H](Cc1ccc(O)cc1)NC(=O)[C@H](CC(=O)O)NC(=O)[C@H](CO)NC(=O)[C@@H](NC(=O)[C@H](Cc1ccccc1)NC(=O)[C@@H](NC(=O)CNC(=O)[C@H](CCC(N)=O)NC(=O)C(C)(C)NC(=O)[C@@H](N)Cc1c[nH]cn1)[C@@H](C)O)[C@@H](C)O)C(=O)N[C@@H](CCC(=O)O)C(=O)N[C@@H](Cc1ccccc1)C(=O)N[C@H](C(=O)N[C@@H](C)C(=O)N[C@@H](Cc1c[nH]c2ccccc12)C(=O)N[C@@H](CC(C)C)C(=O)N[C@@H](CCC(=O)O)C(=O)NCC(=O)NCC(N)=O)[C@@H](C)CC)C(=O)O)C(=O)O
B4: dgc014 (peptide)
peptide: HXQGTFTSDYSKYLDERAAKEFIAWLEGG
HELM: PEPTIDE1{H.[Aib].Q.G.T.F.T.S.D.Y.S.K.Y.L.D.E.R.A.A.K.E.F.I.A.W.L.E.G.G.[am]}|PEPTIDE2{[CCCCCCCCCCCCCCCC(=O)[*:2]].[gGlu]}$PEPTIDE1,PEPTIDE2,20:R3-2:R2$$$V2.0; N-terminus assumed
SMILES: CCCCCCCCCCCCCCCC(=O)N[C@@H](CCC(=O)NCCCC[C@H](NC(=O)[C@H](C)NC(=O)[C@H](C)NC(=O)[C@H](CCCNC(=N)N)NC(=O)[C@H](CCC(=O)O)NC(=O)[C@H](CC(=O)O)NC(=O)[C@H](CC(C)C)NC(=O)[C@H](Cc1ccc(O)cc1)NC(=O)[C@H](CCCCN)NC(=O)[C@H](CO)NC(=O)[C@H](Cc1ccc(O)cc1)NC(=O)[C@H](CC(=O)O)NC(=O)[C@H](CO)NC(=O)[C@@H](NC(=O)[C@H](Cc1ccccc1)NC(=O)[C@@H](NC(=O)CNC(=O)[C@H](CCC(N)=O)NC(=O)C(C)(C)NC(=O)[C@@H](N)Cc1c[nH]cn1)[C@@H](C)O)[C@@H](C)O)C(=O)N[C@@H](CCC(=O)O)C(=O)N[C@@H](Cc1ccccc1)C(=O)N[C@H](C(=O)N[C@@H](C)C(=O)N[C@@H](Cc1c[nH]c2ccccc12)C(=O)N[C@@H](CC(C)C)C(=O)N[C@@H](CCC(=O)O)C(=O)NCC(=O)NCC(N)=O)[C@@H](C)CC)C(=O)O
B5: dgc017 (peptide)
peptide: HXQGTFTSDYSKYLDEKAAKEFIAWLEGG
HELM: PEPTIDE1{H.[Aib].Q.G.T.F.T.S.D.Y.S.K.Y.L.D.E.K.A.A.K.E.F.I.A.W.L.E.G.G.[am]}|PEPTIDE2{[CCCCCCCCCCCCCCCC(=O)[*:2]].[gGlu]}$PEPTIDE1,PEPTIDE2,20:R3-2:R2$$$V2.0; N-terminus assumed
SMILES: CCCCCCCCCCCCCCCC(=O)N[C@@H](CCC(=O)NCCCC[C@H](NC(=O)[C@H](C)NC(=O)[C@H](C)NC(=O)[C@H](CCCCN)NC(=O)[C@H](CCC(=O)O)NC(=O)[C@H](CC(=O)O)NC(=O)[C@H](CC(C)C)NC(=O)[C@H](Cc1ccc(O)cc1)NC(=O)[C@H](CCCCN)NC(=O)[C@H](CO)NC(=O)[C@H](Cc1ccc(O)cc1)NC(=O)[C@H](CC(=O)O)NC(=O)[C@H](CO)NC(=O)[C@@H](NC(=O)[C@H](Cc1ccccc1)NC(=O)[C@@H](NC(=O)CNC(=O)[C@H](CCC(N)=O)NC(=O)C(C)(C)NC(=O)[C@@H](N)Cc1c[nH]cn1)[C@@H](C)O)[C@@H](C)O)C(=O)N[C@@H](CCC(=O)O)C(=O)N[C@@H](Cc1ccccc1)C(=O)N[C@H](C(=O)N[C@@H](C)C(=O)N[C@@H](Cc1c[nH]c2ccccc12)C(=O)N[C@@H](CC(C)C)C(=O)N[C@@H](CCC(=O)O)C(=O)NCC(=O)NCC(N)=O)[C@@H](C)CC)C(=O)O
B6: dgc013 (peptide)
peptide: HXQGTFTSDYSKYLDERAAKEFIAWLEGG
HELM: PEPTIDE1{H.[Aib].Q.G.T.F.T.S.D.Y.S.K.Y.L.D.E.R.A.A.K.E.F.I.A.W.L.E.G.G.[am]}|PEPTIDE2{[CCCCCCCCCCCCCCCC(=O)[*:2]].[gGlu].[gGlu]}$PEPTIDE1,PEPTIDE2,20:R3-3:R2$$$V2.0; N-terminus assumed
SMILES: CCCCCCCCCCCCCCCC(=O)N[C@@H](CCC(=O)N[C@@H](CCC(=O)NCCCC[C@H](NC(=O)[C@H](C)NC(=O)[C@H](C)NC(=O)[C@H](CCCNC(=N)N)NC(=O)[C@H](CCC(=O)O)NC(=O)[C@H](CC(=O)O)NC(=O)[C@H](CC(C)C)NC(=O)[C@H](Cc1ccc(O)cc1)NC(=O)[C@H](CCCCN)NC(=O)[C@H](CO)NC(=O)[C@H](Cc1ccc(O)cc1)NC(=O)[C@H](CC(=O)O)NC(=O)[C@H](CO)NC(=O)[C@@H](NC(=O)[C@H](Cc1ccccc1)NC(=O)[C@@H](NC(=O)CNC(=O)[C@H](CCC(N)=O)NC(=O)C(C)(C)NC(=O)[C@@H](N)Cc1c[nH]cn1)[C@@H](C)O)[C@@H](C)O)C(=O)N[C@@H](CCC(=O)O)C(=O)N[C@@H](Cc1ccccc1)C(=O)N[C@H](C(=O)N[C@@H](C)C(=O)N[C@@H](Cc1c[nH]c2ccccc12)C(=O)N[C@@H](CC(C)C)C(=O)N[C@@H](CCC(=O)O)C(=O)NCC(=O)NCC(N)=O)[C@@H](C)CC)C(=O)O)C(=O)O

For the first test, the target named is GLP-1 receptor (GLP-1R), stably expressed on HEK293 cells. Briefly: cell-based or functional assay.
Regarding B1, the “GLP-1R (nM EC50), receptor-mediated cAMP production in HEK293 cells” value was 0.899 nM.
Still for that read-out and setting: as for B2, the figure is 0.401 nM; as for B3, 1.23 nM; as for B4, 0.516 nM.
Same read-out and setting: the same measure for B5: 0.627 nM; for B6: 0.319 nM.

Another test concerns the target Glucagon receptor (GCGR), stably expressed on HEK293 cells. Briefly: cell-based or functional assay.
As to B1, the “GCGR (nM EC50), receptor-mediated cAMP production in HEK293 cells” value amounted to 1.53 nM.
On the same count and under the same terms, the same measure for B2: 1.3 nM; for B3: 0.342 nM; for B4: 0.821 nM.
On the same count and under the same terms, the same measure for B5: 3.95 nM.
With B6, the “GCGR (nM EC50), receptor-mediated cAMP production in HEK293 cells” value is 1.99 nM.
